According to patent US20230203146A1:
Substitutions are numbered along the chain they refer to.

B1: VHH 00908 (VHH, not shown: small tags and cut ends)
VHH: EVQLVESGGGLVQPGGSLRLSCAASGITLDDYAIGWFRQAPGKEREGVSSIRDNGGSTYYADSVKGRFTISSDNSKNTVYLQMNSLRPEDTAVYYCAAVPAGRLRYGEQWYPIYEYDAWGQGTLVTVSS
B2: VHH 00937 (VHH, not shown: small tags and cut ends)
VHH: B1 VHH with A24V, S50A, D53E, N54S
B3: VHH 00938 (VHH, not shown: small tags and cut ends)
VHH: B1 VHH with A24V, S50A, D53S, N54S
B4: VHH 00936 (VHH, not shown: small tags and cut ends)
VHH: B1 VHH with A24V, S50A
B5: VHH 00935 (VHH, not shown: small tags and cut ends)
VHH: B1 VHH with S50A, D53S, N54S
B6: VHH 00919 (VHH, not shown: small tags and cut ends)
VHH: B1 VHH with I27F, S50A, Y106F, I113L
B7: VHH 00934 (VHH, not shown: small tags and cut ends)
VHH: B1 VHH with S50A, D53E, N54S
B8: VHH 00923 (VHH, not shown: small tags and cut ends)
VHH: B1 VHH with E1D, I27F, S50A, Y106F, I113L
B9: VHH 00932 (VHH, not shown: small tags and cut ends)
VHH: B1 VHH with A24V
B10: VHH 00933 (VHH, not shown: small tags and cut ends)
VHH: B1 VHH with S50A
B11: VHH 00956 (VHH, not shown: small tags and cut ends)
VHH: B1 VHH with I27F, S50A, D53S, N54S, Y106F, I113L
B12: VHH 8A11 (VHH, not shown: small tags and cut ends)
VHH: EVQLVESGGGLVQAGGSLRLSCAASGRTFSSYAMGWFRQAPGKELEFVTAVSWSGGSTYYADSVKGRFTISRDSAKNTVYLQMNSLKPEDTAVYYCAAQSTIVEVTTLEAYDYWGQGTQVTVSS
B13: VHH 22C07 (VHH, not shown: small tags and cut ends)
VHH: EVQLVESGGGLVQAGGSLRLSCAASGFTFDDYAIGWFRQAPGKEREGVSCISSSDGSTYYADSVKGRFTISSDNAKNTVYLQMNSLKPEDTAVYYCAADFIISSKRLCLDLFGSRGQGTQVTVSS
B14: VHH 14H02 (VHH, not shown: small tags and cut ends)
VHH: EVQLVESGGGLVQAGGSLRLSCAASGFTFDEYAIGWFRQAPGKEREGVSYISSSDGSTYYADSVKGRVTSSSDNAKNTVYLQMNSLKPEDTAVYYCAARPTLRVRLDNDRHHLLYEYEYDYWGQGTQVTVSS
B15: VHH 2F04 (VHH, not shown: small tags and cut ends)
VHH: EVQLVESGGGLVQAGGSLRLSCAASGFAFDDHLIGWFRQAPGKEREAVSCISRSAGSTYYADSVKGRFTISSDNAKNTVYLQMNSLKADDTAVYYCAAGPAWGRPASPLPYEYDYWGQGTQVTVSS
B16: VHH 3F02 (VHH, not shown: small tags and cut ends)
VHH: EVQLVESGGGLVQVGDSLRLACAASGRTFSTYLMVGWFRQAPGKEREFAAGIWSSGDTAYADSVKGRFTISRDNAKNTVYLQMNSLKTEDTAVYYCAGSYDGNYYIPGFYKDWGQGTQVTVSS
B17: VHH 15H04 (VHH, not shown: small tags and cut ends)
VHH: EVQLVESGGGLVQAGGSLGLSCAASERTLPSYVMGWFRQAPGKELEFVAGISWSSGRTYYTDSVKGRFTISRDAAENTWYLQMNSLKPEDTAVYYCASNSVSEPTLHTWQYEASYDYWGQGTQVTVSS
B18: VHH 6H05 (VHH, not shown: small tags and cut ends)
VHH: EVQLVESGGGLVQAGGSLRLSCAASGFTFDDYAIGWFRQAPGKEREGVSCISSSDGSTAYADSVKGRFTISSDNAKNTVYLQMNSLKPEDTAVYYCTAVPATRRTPQMVAANVCWLAEYEYDYWGQGTQVTVSS
B19: VHH 16G09 (VHH, not shown: small tags and cut ends)
VHH: EVQLVESGGGLVQAGGSLRLVCSASGIDFSINAMAWYRQAPGKQREWVAFMINDSSTDYTDSVKGRFTISRDSTKNILYLQMNNLNVEDTAVYYCNTAYEQHTYWGQGTQVTVSS
B20: VHH 12B03 (VHH, not shown: small tags and cut ends)
VHH: EVQLVESGGGLVQSGGSLRLSCAASGFALDYYTIGWFRQAPGKEREGVSCISGGDTSTYYADSVKGRFTISRDNAKNTVYLQMNSLKPEDTAVYYCATDSAGVPAGPAAVYGSTCSRLEYDYWGQGAQVTVSS
B21: VHH 10C06 (VHH, not shown: small tags and cut ends)
VHH: EVQLVESGGGLVQAGGSLRLSCVASGFTFDDYAIGWFRQAPGKEREGVSCISSSDGSTYYADSVKGRFTISGDNAKNTVYLQMNSLKPEDTAVYYCAAGITPCSDYTQTYEYDVWGQGTQVTVSS
B22: VHH 21G10 (VHH, not shown: small tags and cut ends)
VHH: EVQLVESGGGLVQAGGSLRLSCAASGFTLDDYAIGWFRQAPGKEREGVSCISSSDGSTTYADSVKGRFTVSSDNAKNTVYLQMNSLKPEDTAVYYCAAGLRGRYYRGTYSLVCAPYEYDFWGQGTQVTVSS
B23: VHH 3A07 (VHH, not shown: small tags and cut ends)
VHH: EVQLVESGGGLVQPGGSLRLSCAASGFTLDYDAIGWFRQAPGKEREGVSCITSSDGITYYADSVKGRFTISRDNAKNTVYLQMNSLKPEDTAVYYCATGNRRIYYSDYALACFPYEYDYWGQGTQVTVSS
B24: VHH 00041 (VHH, not shown: small tags and cut ends)
VHH: B1 VHH with I27F, G55D, S75A, Y106F, I113L
B25: VHH 00054 (VHH, not shown: small tags and cut ends)
VHH: B1 VHH with I27F, G55D, S72R, Y106F, I113L
B26: VHH 00052 (VHH, not shown: small tags and cut ends)
VHH: B1 VHH with I27F, G55D, S75D, Y106F, I113L
B27: VHH 00053 (VHH, not shown: small tags and cut ends)
VHH: B1 VHH with I27F, G55D, S72R, S75D, Y106F, I113L
B28: VHH 00048 (VHH, not shown: small tags and cut ends)
VHH: B1 VHH with P14A, I27F, N54S, G55D, S75D, R87K, Y106F, I113L
B29: VHH 00025 (VHH, not shown: small tags and cut ends)
VHH: B1 VHH with P14A, I27F, S50T, N54S, G55D, S75D, R87K, Y106F, I113L
B30: VHH 00043 (VHH, not shown: small tags and cut ends)
VHH: B1 VHH with I27F, G55D, S72R, S75A, Y106F, I113L
B31: VHH 23C10 (VHH, not shown: small tags and cut ends)
VHH: EVQLVESGGGLVQPGGSLRLSCAASGFALDYYAIGWFRQAPGKEREGVSCISSSDGSTYYADSVKGRFTISRDNAKNTVYLQMNSLKPEDTAVYYCATDSLGYGSSCRMAPYEYDYWGQGTQVTVSS
B32: VHH 2G01 (VHH, not shown: small tags and cut ends)
VHH: EVQLVESGGGLVQAGGSLRLSCAASGRTISSYAMAWFRQAPGKEREFVAAISLSGDSTYYADSVKGRFTISRDNAKNTVYLQMNSLKPEDTAEYYCAATDWDFEDIPEYYCSGYGCDESLFDSWGQGTQVTVSS
B33: VHH 10A03 (VHH, not shown: small tags and cut ends)
VHH: EVQLVESGGGSVQAGGSLRLSCAASERTFSPYAMGWFRQAPGKEREFVAHITWSAGSTYYADSVKGRFTISRDNAKNTVYLQMNSLKPEDTAVYYCAAKRRYGIVDRDYNDWGQGTQVTVSS
B34: VHH 19A03 (VHH, not shown: small tags and cut ends)
VHH: EVQLVESGGGLVQAGGSLRLSCAASGFTFDDYAIAWFRQAPGKEREGISCITPSDDRTYYADSVKGRFIISSDNAKNTVYLQMNSLKPEDTADYYCAAVPRLRGLGYWPYPEYEYDYWGQGTQVTVSS
B35: VHH 25B01 (VHH, not shown: small tags and cut ends)
VHH: EVQLVESGGGLVQAGGSLRLSCAASGFTFDDYAIGWFRQAPGKEREGVSCISSSDGSTYYADSVKGRFTISSDNAKNTVYLQMNSLKPEDTAVYYCAAAWGASRLPIGTMPPYEYDYWGQGTQVTVSS
B36: VHH 22G11 (VHH, not shown: small tags and cut ends)
VHH: EVQLVESGGGLVQAGGSLRLSCAVSGFTFDDYAIGWFRQAPGKEREGVSCISRSDGSPYYADSVKGRFTISSDNAKGTVYLQMSSLKPEDTAVYYCAASWSGAYYSGTYYCDRLYEYDAWGQGTQVTVSS
B37: VHH 15A06 (VHH, not shown: small tags and cut ends)
VHH: EVQLVESGGGLVQAGGSLRLSCAASGRTFSSYAMGWFRQAPGKEREFVARISWNGGSTYHADSVKGRFTISRDNPKNTVYLQMDSLKPEDAAIYYCAASIALVGGVTPHSYDYWGQGTQVTVSS

Target: FLAG-tagged human Ang2 (human) (UniProt O15123)
Sequence (O15123 19-496): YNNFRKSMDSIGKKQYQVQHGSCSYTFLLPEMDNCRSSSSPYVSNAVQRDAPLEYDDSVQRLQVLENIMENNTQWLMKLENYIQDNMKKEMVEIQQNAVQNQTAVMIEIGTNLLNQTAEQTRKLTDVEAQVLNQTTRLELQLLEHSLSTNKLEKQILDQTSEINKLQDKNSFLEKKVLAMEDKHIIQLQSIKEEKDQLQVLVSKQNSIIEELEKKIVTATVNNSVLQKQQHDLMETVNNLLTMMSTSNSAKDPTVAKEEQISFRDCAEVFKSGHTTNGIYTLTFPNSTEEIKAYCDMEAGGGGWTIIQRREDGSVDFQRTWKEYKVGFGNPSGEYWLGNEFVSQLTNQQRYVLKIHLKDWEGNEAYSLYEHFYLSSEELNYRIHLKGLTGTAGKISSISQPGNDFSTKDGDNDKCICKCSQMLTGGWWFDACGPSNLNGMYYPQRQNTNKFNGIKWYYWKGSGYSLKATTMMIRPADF
Assay: competition ELISA: FLAG-hAng2 binding to coated hTie2-Fc

Row | IC50 [nM] | Binder
1 | 0.045 | B1
2 | 0.054 | B2
3 | 0.05 | B3
4 | 0.045 | B4
5 | 0.068 | B5
6 | 0.9 | B6
7 | 0.064 | B7
8 | 0.7 | B8
9 | 0.049 | B9
10 | 0.056 | B10
11 | 1.3 | B11

Target: FLAG tagged human Ang2 (Alexis Biochemicals) (human) (UniProt O15123)
Sequence (O15123 19-496): as above
Assay: competition ELISA, FLAG-hAng2 (0.02 nM) on coated hTie2/Fc

Row | IC50 [nM] | Binder
12 | 30.2 | B12
13 | 11 | B13
14 | 64.4 | B14
15 | 2.8 | B15
16 | 9.1 | B16
17 | 18.6 | B17
18 | 5.3 | B18
19 | 11.3 | B19
20 | 4.6 | B20
21 | 7.7 | B21
22 | 6.2 | B22
23 | 21 | B23

Target: FLAG-tagged recombinant human Ang1 (human) (UniProt Q15389)
Sequence (Q15389 20-498 limits assumed): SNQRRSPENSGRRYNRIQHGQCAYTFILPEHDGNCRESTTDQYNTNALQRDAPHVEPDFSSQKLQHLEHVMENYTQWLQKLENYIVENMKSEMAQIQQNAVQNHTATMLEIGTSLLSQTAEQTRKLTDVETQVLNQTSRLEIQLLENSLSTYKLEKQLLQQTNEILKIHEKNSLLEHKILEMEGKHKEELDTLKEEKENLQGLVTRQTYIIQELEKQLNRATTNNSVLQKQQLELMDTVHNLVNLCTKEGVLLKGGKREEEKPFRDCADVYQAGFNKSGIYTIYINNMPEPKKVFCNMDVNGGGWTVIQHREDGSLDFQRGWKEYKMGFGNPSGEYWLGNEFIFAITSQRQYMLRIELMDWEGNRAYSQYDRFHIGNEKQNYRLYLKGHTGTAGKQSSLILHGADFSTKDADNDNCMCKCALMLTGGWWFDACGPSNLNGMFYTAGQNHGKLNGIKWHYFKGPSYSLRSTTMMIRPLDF
Assay: ratio of IC50s in hAng1/hTie2 and hAng2/hTie2 competition ELISA

Row | hAng1/hAng2 IC50 ratio | hAng1/hAng2 ratio | Binder
24 | > 192000 |  | B1
25 | > 186000 |  | B2
26 | > 201000 |  | B3
27 | > 224000 |  | B4
28 | > 146000 |  | B5
29 |  | > 11200 | B6
30 | > 157000 |  | B7
31 | > 206000 |  | B9
32 | > 180000 |  | B10
33 | > 7730 |  | B11

Target: FLAG-tagged human Ang2 (human) (UniProt O15123)
Assay: competition ELISA: FLAG-hAng2 binding to coated hTie2-Fc
Remark: another data set of the same source

Row | IC50 [nM] | Binder
34 | 0.6 | B24
35 | 9.5 | B25
36 | 1 | B26
37 | 10.7 | B27
38 | 0.6 | B28
39 | 2.1 | B29
40 | 9.5 | B30

Target: FLAG tagged human Ang2 (Alexis Biochemicals) (human) (UniProt O15123)
Assay: AlphaScreen competition, periplasmic extract, FLAG-hAng2 / biotin-hTie2/Fc

Row | % inh [%] | Binder
41 | 57 | B31
42 | 55 | B32
43 | 57 | B12
44 | 67 | B33
45 | 73 | B13
46 | 74 | B34
47 | 61 | B35
48 | 96 | B36
49 | 57 | B17
50 | 72 | B37

Target: FLAG tagged human Ang2 (Alexis Biochemicals) (human) (UniProt O15123)
Assay: competition ELISA, periplasmic extract, FLAG-hAng2 on hTie2/Fc

Row | % inh [%] | Binder
51 | 37 | B31
52 | 39 | B32
53 | 67 | B12
54 | 0 | B33
55 | 78 | B13
56 | 74 | B34
57 | 5 | B35
58 | 100 | B36
59 | 82 | B17
60 | 0 | B37
